# Measurements as given in the nanobody polyreactivity screen of Harvey et al. (2022).
# Test: yeast display, Sf9 membrane polyspecificity reagent, FACS + sequencing; frameworks hold sequencing errors
# Outline: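 Polyreactivity labels are assigned by the sorting gate from which each nanobody was recovered. The gates were low and high (top ~1%), set on anti-HA fluorescence for expression and streptavidin fluorescence for reagent binding. Before sorting, galactose-induced (36–48 hours) yeast display cells were stained for 1 hour at 4 °C with 10% biotinylated, detergent-solubilized Sf9 membrane reagent.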
row,Sequence,polyreactivity (PSR sort gate)
1,QDQLVESGGGLVQAGGSLRLSCAASGRILGSNTMGWDRQAPGKERELVAAITSAGNTNYADSVKGRFTISRDNAKNTVYLQMNSLKPEDTAVYYCNVRGQRLYYRVRRLYDYWGQGTQVTVSS,high polyreactivity
2,QVQLVESGGGLVQAGGSLRLSCAASGPIVAYNAMGWYRQAPGKERELVAAISYSGGSTYYADSVKGRFTISRDNAKNTVYLQMNSLKPEDTAVYYCNAVYRYRTYRYDYWGQGTQVTVSS,high polyreactivity
3,QVQLVESGGGLVQAGGSLRLSCAASGSIFYRNTMGWYRQATGKERELVARISNGGSTNYADSVKGRFTISRDNAKNTVYLQMNSLKPEDTAVYYCNARRGSATHSVTARRGYWGQGTQVTVSS,high polyreactivity
4,QVQLVESGGGLVQAGGSLRLSCAASGSIFGSYAMGWYRQAPGKERELVAGITYRGSSTYYADSVKGRFTISRDNAKNTVYLQMNSLKPEDTAVYYCAADPVFDEYDYWGQGTQVTVSS,low polyreactivity
5,QVQLVESGGGLVQAGGSLRLSCAASGSTFPYNAMGWYRQAPGKERELVADISGDSGSTYYADSVKGRFTISRDNAKNTVYLQMNSLKPEDTAVYYCAGEGVHYAGDYGTGYDYWGQGTQVTVSS,low polyreactivity
6,QVQLVESGGGLVQAGGSLRLSCAASGRTFQVNAMGWYRQAPGKERELVAAISASDGSTYADSVKGRFTISRDNAKNTVYLQMNSLKPEDTAVYYCNKAAYGGHRTSEQVGWVYLYDYWGQGTQVTVSS,low polyreactivity
7,QVQIVESGGGLVQAGGSLRLSCAASGRTFYYNAMGWYRQAPGKERELVAAITWSGGGTYYADSVKGRFTISRDNAKNTVYLQMNSLKPEDTAVYYCAKTPGWTDYDYWGQGTQVTVSS,high polyreactivity
8,QVQLVESGGGLVQAGGSLRLSCAASGSIFYTYAMGWYRQAPGKERELVAAITYRVGSTYYADSVKGRFTISRDNAKNTVYLQMNSLKPEDTAVYYCNADKGGHVRHYDYWGQGTQVTVSS,low polyreactivity
9,QVQLVESGGGLVQAGGSLRLSCAASGRTFVWNAMGWYRQAPGKERELVAAISSSGGSTYYADSVKGRFTISRDNAKNTVYLQMNSLKPEDTAVYYCAARRASGFDWGQGTQVTVSS,high polyreactivity
10,QVQLVESVGGLVQAGGSLRLSCAASGRIFPYYAMGWYIQAPGKERELVATITWRGGITYYADSVKGRFTISRDNAKNTVYLQMNSLKPEDTSVYYCAVRKVYRSSFDYWGQGTQVTVSS,high polyreactivity
11,QVQLVESGGVLVQAGGSLRLSCAASGRTFYGYAMGWNRQAPGKERYLVAAIDIDVGNTYYADSVKGRFTISRDNAKNTVYLQMNSLKPEDTAVYYCAAEIPSWWLPALFRYDYWGQGTQVTVSS,low polyreactivity
12,QVQLVESGGGLVQAGGSLRLSCAASGFTFAVYAMGWYRQAPGKERELVAAISDSGGSTYYADSVKGRFTISRDNAKNTVYLQMNSLKPEDTAVYYCNRDWIVSGYYAYYEFDYWGQGTQVTVSS,low polyreactivity
13,QVQLVESGGGLVQAGGSLRLSCAASGSTFATYAMGWYRQAPGKERELVAAIRVSGGTTYADSVKGRFTISRDNAKNTVYLQMNSLKPEDNAVYYCAATGWEVYDIFDYWVQGTQVTVSS,low polyreactivity
14,QVQLVESGGGLVQAGGSLRLSCAASGRMIKYNTMGWYRQAPGKERELVAAISLSSGSGGGTRYADSVKGRFKISRDNAKNTVYLQMNSLKPEDTAVYYCAARHRYTNEYDYWGQGTQVTVSS,low polyreactivity
15,QVQLVESGGGLFQAGGSLRLSCAPSGHIFFYYTMGWYRPAPGKERELVAGITIGGSTNYADSVKGRFTISRDNAKNTVYLQMNSLKPEDTAVYYCNVVKYVYIYSYWESYYWGQGTQVTVSS,low polyreactivity
16,QVQLVESGGGLVQAGGSLRLSCAASGSIFRGYGMGWYRQAPGKERELVAANNYSGGSTYYADSVKGRFTISRDNAKNTVYLQMNSLKPEDTAVYYCNKVYYRQRGEYYYWGQGTQVTVSS,high polyreactivity
17,QVQLVESGGGLVQAGGSLRLSCPASGIIFYGYTMGWYRQEPGKERELVAAISRSGGRTYYADSVKGRFTISRDNAKYTVYLQMNSLKPEDTAVYYCAATGSYSDRVEDEFWGQGTQVTVST,high polyreactivity
18,QVQLVESGGGLVQAGGSLRLSCAASVSIFARYAMGWYRQAPGKERELVAAITSGTSTNYADSVKGRFTISRDNAKNSVYLQMNSLKPEDTAVYYCNARHTWHQTYDYCGQGTQVTVSS,low polyreactivity
19,QVQLVESGGGLVQAGGSLRLSCAASGSIFTWYAMGWYRQAPGKERELVAAISEDGGSTYYADSVKGRFTISRDNAKNTVYLQMNSLKPEDTAVFYCATPVASVTGYDYWGQGTQVTVSS,low polyreactivity
20,QVQLVESGGGLVQAGGSLRLSCAASGSIFSRYTMGWYRQAPGKERELVAAISSGGSTNYADSVKGRFTISRDNAKNTVYLQMNRLKPEDTAVYYCAARSYRYYYGFDYWGQGTQVTVSS,low polyreactivity
21,QVQLVESGGGLVQAGGSLRLSCAASGGTLGLNAMGRTRQAPGKEREFVAAINRSGGSTRYADSVKGRFTISRDNAKNTVYLQMISLKPEDTAVYYCNAASWTFQTTPKYDYWGQGTQVTVSS,high polyreactivity
22,QVQLVESGGGLVQAGGSLRLTCAASGSIFRINAMGWYRQEPGKEREFVAVITSRTGNTYYADSVKGRFTISRDNAKNTVYLQMNSLKPEDTAVYYCAADYPPARWEMEYWGQGTQVTVSS,low polyreactivity

row,Sequence,polyreactivity (PSR sort gate)
1,QVQLVESGGGLVQAGGSLRLSCAASGLTFYYYAMGWYRQAPGKERELVAGISGSDGSTYYADSVKGRFTISRDNAKNTVYLQMNSLKPEDTAVYYCAAEYYYPWPLYYITDGIYDMYYWGQGTQVTVSS,low polyreactivity
2,QVQLVESGGGLVQAGGSLRLSCAASGSIFQYNDMGWYRQQPGKEREFVADISSSGGSTYYADSVKGRFTISRDTAKNTVYLQMNSLKPEDTEVYYCNADPGYDFYRDEYWGQGTQVTVSS,low polyreactivity
3,QVQLVESGGGLVQAGGSLRLSCAASGFTFSRYAMGWYRQAPGKERELVAAISLRGGRTYYADSVKGRFTISRDKTKNSVYLQMNSLKPEDTAVYYCNRDYRGPYYYWGQGSQVTVSS,high polyreactivity
4,QVQLVESGRGLVQAGGSLRLSCAASGRTFWYYAMGWYRQAPGKERELDARISSSGGSTYADSVKGRFTISRDNAKNTVYLHMNSLKPEDTAVYYCAADRHYWKADPSQGYQHYYWGQGTQVTVSS,high polyreactivity
5,QVQLVESGGGLVQAGGSLRLSCAASGSTFSKYAMGWYRPAPGKERELVAAISSRGGSTYYADSVKGRFTISRDNAKNTVYLQMNSLKPEDTAVYYCATYYVYKLYYWGQGTQVTVSS,high polyreactivity
6,QVQLVESGGGLVQAGGRLRLSCAASGLIFRAYAMGWYRQAPGKERELVAAISRRGGSTYYADSVKGRFTISRDNAKNTVYLQMNSLKPEDTAVYYCAATSRVSKSHLYGYWGQGTQVTVSS,high polyreactivity
7,QVQLVESGGGLVQAGGSLRLSCAASGFTFVPYAMGWYRQAPGKERELVAAISSRGDSTYYADSVKGRFTISRDNAKNTVYLQMNSLKPEDTAVYYCNARTTPHMDYWGQGTQVTVSS,low polyreactivity
8,QVQLVESGGGLVQAGGSLRLSCAASGRTFSYYAMGWYRQAPGKERELVAAISYSGGRTYYADSVKGRFTISRDNAKNTVYIQMNSLKPEDTAVYYCAPVKSRPQYGYGYWVQGTQVTVSS,high polyreactivity
9,QVHLVESGGGLVQAGGRLRLSCAASALTYAYYAMGRYREAPRKERELVAAITTGGTTNYADSVKGRFTISRDNAKNTVYLQMNSLKTEDTAVYYCARLYRSGYEYWGQGTQVTVSS,low polyreactivity
10,QVQLVESGGGLVQAGGSLRLSCAASGGTFHYYAMGWYRQAPGKERELVAAISWSGGSTYYADSVKGRFTISRDNAKNTVYLQMNSLKPEDTAVYYCAAETYPYLFHTYDYWGQGTQVTVSS,low polyreactivity
11,QVQLVESGGGLVQAGGSLRLSCAASGSTFSRYAMGWYRQAPGKEREMVAAINTRGGSTYYADSVKGRFTISRDNSKNTVYLQMNSLKPEDTAVYYCARRFYGFGPYYPFDYWGQGTQVTVSS,low polyreactivity
12,QVQLVESGGGLVQAGGSLRLSCAASGSTFTDYDMGWYRQAPGKERELVAAISSGGSTYYADSVKGRFTISRDNAKNTVYLQMNSLKPEDTAVYYCAAVLGVWGGVGSEGDYWGQGTQVTVSS,low polyreactivity
13,QVQLVESGGGLVQAGGSLRLSCAASGTIIVWNAMGRYRQARGKERELVASITSGASTNYADSVKGRFTISRDNAKNTVYLQMNSLKPEDTAVYYCNAGPRRTISRSRLRSAPKYDYWGQGTQVTVSS,low polyreactivity
14,QVQLVESGGGLVQAGGSLRLSCAASGRTFYLNAMGWYRQAPGKERELVAAITSSGGRTYYADSVKGRFTISRDNAKNTVYLQMNSLKPEDTAVYYCAAVVSSKPSFYWGQGTQVTVSS,low polyreactivity
15,QVQLVESGGGLVQAGGSLRLSCAASGRTFAYNAMGWYRQAPGKERELVADITSGGSTYYADSVKGRFTISRDNAKNTVYLQMNSLKPEDTAVYYCAAYPQFWYWDYNYWGQGTQVTVSS,high polyreactivity
16,QVQLVESGGGLVQAGGSLRLSCAASGIIFSYYAMGWYIQAPGKERELVAVINSGGSTYYADSVKGRFTISRDNAKNTVYLQMNSLKPEDTAVYYCAATIFVKFYYWGQGTQVTVSS,low polyreactivity
17,QVQLVESGGGLVQAGGTLRLSCAPSGRIFKTYAMGWYRQAPGKERELVAAITNNGGSTYYADSVKGRFTISRDNAKNTVYLLMNSLKPEDTAVYYCAVYVKYHYPVVTTGYDYWGQGTQVTVSS,high polyreactivity
18,QVQLVESGGGLVQAGGSLRLSCAASGRIFRGNAMGWYRQVPGKERELVAAISSGTRTTYADSVKGRFTISRDNAKNTVYLQMNSLKPEDTAVYYCAAYNSYLGYPYYYWGQGTQVTVSS,high polyreactivity
19,QVQIVESGGGLVQAGGSLRLSCAASGRTFRYYTMGWYIQAPGKERELVAVISRSGGSTYYADSVKGRFTISRDNAKNTVYLQMNSLKPEDTAVYYCNAGYWRFIDSYDYWGPGTQVTVSS,high polyreactivity
20,QVQLVESGGGLVQAGGSLRLSCAASGRIFRYNAMGWYRQAPGKERELVAAITGCGGSTYYADSVKGRFTISRDNAKNTVYLQMNSLKPEDTAVYYCNTYTYYSRMDYWGQGTQVTVSS,high polyreactivity
21,QVQLGESGGGLVQAGGSLRLSCAASGFTFYGNAMGWYRQAPGKERELVAAITYSGGRTYYADSVKGRFTISRDNAKNTVYLQMNSLKPEDTAVYYCARRRGYGQYDYWGQGTQVTVSS,high polyreactivity
